According to paper PMC11739670:
“And” between values parts separate entries of the source, which are not always exact repeats. Identical values can stand only once.

How the values were obtained:
[1] = biological target: MHCI-related protein 1 (MR1) with β2m, loaded with 5-(2-oxopropylideneamino)-6-d-ribitylaminouracil (human) (UniProt Q95460); experiment: SPR; BIAcore T200, CM5 chip with streptavidin; biotinylated pMHCI, MR1 or CD1 captured; serial dilution of CD8-Fc fusion injected; 25°C, PBS with 0.005% Tween 20; steady-state responses, 1:1 Langmuir fit
[2] = biological target: MHCI-related protein 1 (MR1) with β2m, loaded with 5-formyl salicylic acid (human) (UniProt Q95460); experiment: as above
[3] = biological target: MHCI-related protein 1 (MR1) with β2m, loaded with 6-formylpterin (human) (UniProt Q95460); experiment: as above
[4] = biological target: MHCI-related protein 1 (MR1) with β-2 microglobulin, biotinylated, loaded with model ligands (UniProt Q95460); experiment: SPR; biotinylated ligands (pMHCI, MR1, CD1) captured on streptavidin coupled to a CM5 chip; serial dilution of each CD8-Fc fusion injected; steady-state responses, 1:1 Langmuir fit; BIAcore T200, 25°C, PBS with 0.005% Tween 20
[5] = biological target: HLA-A*03:01 with peptide […]; experiment: SPR
[6] = biological target: HLA-A*24:02 peptide-MHC class I (biotinylated pMHCI); experiment: SPR; biotinylated ligands (pMHCI, MR1, CD1) captured on streptavidin coupled to a CM5 chip; serial dilution of each CD8-Fc fusion injected; steady-state responses, 1:1 Langmuir fit; BIAcore T200, 25°C, PBS with 0.005% Tween 20

Row | Kd [1] | Kd [2] | Kd [3] | Kd [4] | Substance | Kd [5] | Kd [6]
1 | 248 µM and 274 µM | 222 µM and 236 µM | 248 µM and 280 µM | 250 µM | soluble human CD8αα-Fc homodimer (from UniProt P01732 22-182) (Fc fusion) | – | –
2 | – | – | – | – | soluble human CD8αβ-Fc heterodimer (from UniProt P01732 22-182; P10966 22-170) (Fc fusion) | 127 µM | 230 µM
